For this data set, the system named is Escherichia coli TOP10. In words: shrunken log2 fold change of peptide-encoding DNA abundance (4.5 h post-induction vs induction); higher = less antimicrobial activity (less host growth inhibition). To be noted: time post-induction: 4.5 h; library: site-saturation at positions 5, 18, 19, 20.
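Also: peptides expressed intracellularly from a pBAD plasmid library in pooled LB shake-flask culture, induced with 0.3% L-arabinose, DNA abundance read by NGS, three biological replicates, DESeq2 with apeglm shrinkage.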

For RRIRTRPPRLPRPRPRPWQEPRP, the “shrunken log2 fold change” value is 0.0948.

On to RRIRPRPPRLPRPRPRPHCHPRP, for which the “shrunken log2 fold change” value is -0.0394.

With RRIRRRPPRLPRPRPRPIEVPRP, the “shrunken log2 fold change” value turned out to be 0.0048.

Regarding RRIRARPPRLPRPRPRPTISPRP, the “shrunken log2 fold change” value came to 0.0389.

For RRIRARPPRLPRPRPRPHAWPRP, the “shrunken log2 fold change” value came to 0.375.

With RRIRRRPPRLPRPRPRPSAIPRP, the “shrunken log2 fold change” value is 0.0689.

RRIRHRPPRLPRPRPRPYENPRP: the “shrunken log2 fold change” value is -0.0765.

For the sequence RRIRNRPPRLPRPRPRPCILPRP, the “shrunken log2 fold change” value was -0.119.

As for RRIRLRPPRLPRPRPRPDFEPRP, the “shrunken log2 fold change” value is -0.0246.

Turning to RRIRNRPPRLPRPRPRPLQRPRP, the “shrunken log2 fold change” value was found to be 0.0374.

For RRIRTRPPRLPRPRPRPEDKPRP, the “shrunken log2 fold change” value is -0.0305.

Regarding RRIRIRPPRLPRPRPRPMQMPRP, the “shrunken log2 fold change” value was -0.52.

With RRIRCRPPRLPRPRPRPQNPPRP, the “shrunken log2 fold change” value was -0.144.

For the sequence RRIRTRPPRLPRPRPRPEIMPRP, the “shrunken log2 fold change” value is -0.468.

RRIRKRPPRLPRPRPRPMAKPRP: the “shrunken log2 fold change” value was 0.545.

Regarding RRIRARPPRLPRPRPRPRIIPRP, the “shrunken log2 fold change” value came out at 0.093.

For RRIRRRPPRLPRPRPRPPYMPRP, the “shrunken log2 fold change” value amounted to 0.315.

Consider RRIRTRPPRLPRPRPRPGRMPRP, for which the “shrunken log2 fold change” value turned out to be 0.232.

As for RRIRVRPPRLPRPRPRPTVYPRP, the “shrunken log2 fold change” value was -0.0885.

Consider RRIRKRPPRLPRPRPRPNFIPRP, for which the “shrunken log2 fold change” value was -0.144.

As to RRIRERPPRLPRPRPRPNVHPRP, the “shrunken log2 fold change” value was -0.344.

As to RRIRMRPPRLPRPRPRPTLGPRP, the “shrunken log2 fold change” value turned out to be 0.685.

In the case of RRIRCRPPRLPRPRPRPEFFPRP, the “shrunken log2 fold change” value is -0.127.

In the case of RRIRDRPPRLPRPRPRPDAQPRP, the “shrunken log2 fold change” value was found to be 1.21.

Regarding RRIRMRPPRLPRPRPRPLNIPRP, the “shrunken log2 fold change” value was -0.163.

Consider RRIRARPPRLPRPRPRPWKTPRP, for which the “shrunken log2 fold change” value is -0.0874.

As for RRIRDRPPRLPRPRPRPYWPPRP, the “shrunken log2 fold change” value is -0.547.

As to RRIRLRPPRLPRPRPRPKRMPRP, the “shrunken log2 fold change” value is -0.029.

Turning to RRIRMRPPRLPRPRPRPCSAPRP, the “shrunken log2 fold change” value amounted to 1.24.

Turning to RRIRARPPRLPRPRPRPPNNPRP, the “shrunken log2 fold change” value is 0.0107.

Turning to RRIRMRPPRLPRPRPRPLHNPRP, the “shrunken log2 fold change” value is -0.127.

Turning to RRIRYRPPRLPRPRPRPMTTPRP, the “shrunken log2 fold change” value was -0.2.

Consider RRIRTRPPRLPRPRPRPCKWPRP, for which the “shrunken log2 fold change” value was -0.000493.

Consider RRIRCRPPRLPRPRPRPCIHPRP, for which the “shrunken log2 fold change” value is -0.415.

For RRIRYRPPRLPRPRPRPSFQPRP, the “shrunken log2 fold change” value is -1.13.

As to RRIRFRPPRLPRPRPRPVHRPRP, the “shrunken log2 fold change” value was -0.261.

Take RRIRRRPPRLPRPRPRPRAAPRP: the “shrunken log2 fold change” value was determined as 0.833.

As for RRIRNRPPRLPRPRPRPWMLPRP, the “shrunken log2 fold change” value was -0.0937.

For the sequence RRIRRRPPRLPRPRPRPPKKPRP, the “shrunken log2 fold change” value turned out to be 1.12.

With RRIRVRPPRLPRPRPRPYLPPRP, the “shrunken log2 fold change” value was -0.453.

As to RRIRLRPPRLPRPRPRPSCWPRP, the “shrunken log2 fold change” value worked out at 0.0662.

On to RRIRWRPPRLPRPRPRPGFDPRP, for which the “shrunken log2 fold change” value stood at 0.517.

For the sequence RRIRIRPPRLPRPRPRPIVHPRP, the “shrunken log2 fold change” value was -0.642.

In the case of RRIRMRPPRLPRPRPRPCSWPRP, the “shrunken log2 fold change” value is 0.0611.

For the sequence RRIRSRPPRLPRPRPRPFPTPRP, the “shrunken log2 fold change” value was -0.101.

Consider RRIRGRPPRLPRPRPRPMHIPRP, for which the “shrunken log2 fold change” value was found to be 1.77.

In the case of RRIRLRPPRLPRPRPRPCSGPRP, the “shrunken log2 fold change” value was 0.0583.

As for RRIRTRPPRLPRPRPRPCKLPRP, the “shrunken log2 fold change” value is -0.858.

In the case of RRIRYRPPRLPRPRPRPMHNPRP, the “shrunken log2 fold change” value is 0.162.

Regarding RRIRIRPPRLPRPRPRPECNPRP, the “shrunken log2 fold change” value was -0.324.

Turning to RRIRRRPPRLPRPRPRPSQYPRP, the “shrunken log2 fold change” value was 0.0176.

For RRIRIRPPRLPRPRPRPNGWPRP, the “shrunken log2 fold change” value came to 0.101.

In the case of RRIRLRPPRLPRPRPRPGLHPRP, the “shrunken log2 fold change” value was -0.401.

For RRIRWRPPRLPRPRPRPWQNPRP, the “shrunken log2 fold change” value was -0.159.

Take RRIRERPPRLPRPRPRPVIDPRP: the “shrunken log2 fold change” value is -0.0264.

Consider RRIRHRPPRLPRPRPRPPQCPRP, for which the “shrunken log2 fold change” value came out at 0.178.

As for RRIRSRPPRLPRPRPRPEKLPRP, the “shrunken log2 fold change” value was -0.264.

For the sequence RRIRSRPPRLPRPRPRPEVKPRP, the “shrunken log2 fold change” value turned out to be 0.287.

Consider RRIRQRPPRLPRPRPRPYVYPRP, for which the “shrunken log2 fold change” value was determined as 0.00646.

RRIRMRPPRLPRPRPRPGFFPRP: the “shrunken log2 fold change” value worked out at 0.423.

For RRIRNRPPRLPRPRPRPVKFPRP, the “shrunken log2 fold change” value is -0.0271.

Regarding RRIRARPPRLPRPRPRPSGCPRP, the “shrunken log2 fold change” value amounted to 0.0438.

Consider RRIRYRPPRLPRPRPRPGEFPRP, for which the “shrunken log2 fold change” value is -0.35.

For RRIRKRPPRLPRPRPRPYTHPRP, the “shrunken log2 fold change” value was -0.376.

For the sequence RRIRTRPPRLPRPRPRPWKIPRP, the “shrunken log2 fold change” value is -0.0703.

With RRIRNRPPRLPRPRPRPFANPRP, the “shrunken log2 fold change” value was -0.0288.

As for RRIRWRPPRLPRPRPRPWACPRP, the “shrunken log2 fold change” value turned out to be 0.0611.

For the sequence RRIRIRPPRLPRPRPRPKSEPRP, the “shrunken log2 fold change” value was -0.329.

In the case of RRIRDRPPRLPRPRPRPNDSPRP, the “shrunken log2 fold change” value is -0.134.

Regarding RRIRPRPPRLPRPRPRPKRFPRP, the “shrunken log2 fold change” value turned out to be 0.297.

RRIRMRPPRLPRPRPRPWGGPRP: the “shrunken log2 fold change” value was determined as 0.414.

As to RRIRWRPPRLPRPRPRPDLLPRP, the “shrunken log2 fold change” value is 0.0586.

As to RRIRQRPPRLPRPRPRPESEPRP, the “shrunken log2 fold change” value worked out at 0.219.

On to RRIRCRPPRLPRPRPRPHPNPRP, for which the “shrunken log2 fold change” value was -0.186.

For the sequence RRIRHRPPRLPRPRPRPRAHPRP, the “shrunken log2 fold change” value worked out at 0.216.

Regarding RRIRTRPPRLPRPRPRPYGNPRP, the “shrunken log2 fold change” value was -0.0638.

Regarding RRIRQRPPRLPRPRPRPGPKPRP, the “shrunken log2 fold change” value is -0.0957.

For the sequence RRIRQRPPRLPRPRPRPQWIPRP, the “shrunken log2 fold change” value is -0.0848.

With RRIRSRPPRLPRPRPRPTWIPRP, the “shrunken log2 fold change” value was -0.38.

For the sequence RRIRLRPPRLPRPRPRPSALPRP, the “shrunken log2 fold change” value was -0.0136.

On to RRIRCRPPRLPRPRPRPYIWPRP, for which the “shrunken log2 fold change” value was -0.0216.

RRIRRRPPRLPRPRPRPVIFPRP: the “shrunken log2 fold change” value is 0.145.

RRIRPRPPRLPRPRPRPVYPPRP: the “shrunken log2 fold change” value stood at 3.41.

As to RRIRERPPRLPRPRPRPDTSPRP, the “shrunken log2 fold change” value is -0.417.

As for RRIRRRPPRLPRPRPRPDKMPRP, the “shrunken log2 fold change” value was -0.122.

RRIRFRPPRLPRPRPRPCSHPRP: the “shrunken log2 fold change” value was -0.336.

Consider RRIRKRPPRLPRPRPRPPMQPRP, for which the “shrunken log2 fold change” value came out at 0.439.

RRIRLRPPRLPRPRPRPCHQPRP: the “shrunken log2 fold change” value was -0.234.

In the case of RRIRERPPRLPRPRPRPYEEPRP, the “shrunken log2 fold change” value is -0.636.

With RRIRVRPPRLPRPRPRPYVYPRP, the “shrunken log2 fold change” value is -0.0156.

Take RRIRRRPPRLPRPRPRPEFSPRP: the “shrunken log2 fold change” value was 0.0744.

RRIRMRPPRLPRPRPRPIDMPRP: the “shrunken log2 fold change” value is -0.0621.

For the sequence RRIRGRPPRLPRPRPRPCVIPRP, the “shrunken log2 fold change” value stood at 0.033.

RRIRDRPPRLPRPRPRPPQLPRP: the “shrunken log2 fold change” value was 0.143.

With RRIRMRPPRLPRPRPRPHTLPRP, the “shrunken log2 fold change” value is -0.119.

On to RRIRSRPPRLPRPRPRPTQLPRP, for which the “shrunken log2 fold change” value turned out to be 0.249.

Regarding RRIRNRPPRLPRPRPRPVDNPRP, the “shrunken log2 fold change” value is 0.104.

For RRIRPRPPRLPRPRPRPFFEPRP, the “shrunken log2 fold change” value was determined as 0.229.

As to RRIRFRPPRLPRPRPRPIVRPRP, the “shrunken log2 fold change” value was -0.0797.

Consider RRIRRRPPRLPRPRPRPMQHPRP, for which the “shrunken log2 fold change” value stood at 0.566.

In the case of RRIRIRPPRLPRPRPRPSNSPRP, the “shrunken log2 fold change” value is -1.13.

Take RRIRWRPPRLPRPRPRPMNSPRP: the “shrunken log2 fold change” value was -0.0812.

Regarding RRIRGRPPRLPRPRPRPCEKPRP, the “shrunken log2 fold change” value came to 0.797.

For RRIRWRPPRLPRPRPRPSSLPRP, the “shrunken log2 fold change” value turned out to be 0.449.

RRIRPRPPRLPRPRPRPWHVPRP: the “shrunken log2 fold change” value was -0.0812.

As to RRIRYRPPRLPRPRPRPRACPRP, the “shrunken log2 fold change” value was -0.143.

As for RRIRYRPPRLPRPRPRPCMSPRP, the “shrunken log2 fold change” value was -0.282.

In the case of RRIRNRPPRLPRPRPRPQKEPRP, the “shrunken log2 fold change” value was -0.0193.

With RRIRPRPPRLPRPRPRPGAPPRP, the “shrunken log2 fold change” value came out at 0.536.

With RRIRFRPPRLPRPRPRPCDGPRP, the “shrunken log2 fold change” value was -0.0604.

In the case of RRIRARPPRLPRPRPRPQYIPRP, the “shrunken log2 fold change” value is -0.566.

On to RRIRERPPRLPRPRPRPLKAPRP, for which the “shrunken log2 fold change” value worked out at 0.225.

With RRIRERPPRLPRPRPRPLLCPRP, the “shrunken log2 fold change” value was -0.183.

Turning to RRIRQRPPRLPRPRPRPPFSPRP, the “shrunken log2 fold change” value was -0.0357.

As for RRIRCRPPRLPRPRPRPDNVPRP, the “shrunken log2 fold change” value is -0.0772.

Take RRIRTRPPRLPRPRPRPSIAPRP: the “shrunken log2 fold change” value is -0.281.

In the case of RRIRNRPPRLPRPRPRPPVWPRP, the “shrunken log2 fold change” value stood at 0.476.

Take RRIRARPPRLPRPRPRPMTMPRP: the “shrunken log2 fold change” value came out at 0.245.

Consider RRIRYRPPRLPRPRPRPNTEPRP, for which the “shrunken log2 fold change” value is -0.0461.

On to RRIRPRPPRLPRPRPRPTLGPRP, for which the “shrunken log2 fold change” value amounted to 0.564.

Take RRIRRRPPRLPRPRPRPDSDPRP: the “shrunken log2 fold change” value was 0.021.

Consider RRIRARPPRLPRPRPRPVTTPRP, for which the “shrunken log2 fold change” value worked out at 0.342.

Regarding RRIRQRPPRLPRPRPRPRVNPRP, the “shrunken log2 fold change” value is -0.0952.

Regarding RRIRWRPPRLPRPRPRPIVGPRP, the “shrunken log2 fold change” value is -0.0113.

With RRIRSRPPRLPRPRPRPNPPPRP, the “shrunken log2 fold change” value is -0.222.

These data come from the supplement of paper PMC9112550, “Optimization of the antimicrobial peptide Bac7 by deep mutational scanning” (BMC Biology, 2022).
